Results from US20120214748A1 (published 2012).
Bridge positions count the residues as written; N and C are the ends. Ends that are not written are not given here.

B1: M1-3E-Y12W (peptide)
peptide: GVCSRSLPPICWPD
modifications: disulfide 3-11 (inferred)
notes: The parent M1-3E was not tested as a synthetic peptide
B2: M2-4G (peptide)
peptide: GICSRSLPPICIPD
modifications: disulfide 3-11 (inferred)
notes: Synthetic consensus peptide of the non-selective group, linear form; also called "NS" peptide; non-selective peptide

The binders below were run against Trypsin (assay: enzyme inhibition, Z-L-Lys-SBzl substrate, tight-binding fit).
Trypsin, sequence (P00760 24-246): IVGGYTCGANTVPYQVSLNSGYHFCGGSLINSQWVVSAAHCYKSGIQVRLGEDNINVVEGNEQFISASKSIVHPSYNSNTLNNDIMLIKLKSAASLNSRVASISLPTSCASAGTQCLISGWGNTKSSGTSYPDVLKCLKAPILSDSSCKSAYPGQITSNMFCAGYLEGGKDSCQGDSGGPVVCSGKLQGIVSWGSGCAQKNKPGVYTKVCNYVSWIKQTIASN

Q: For B1, which Ki is on record?
A: 170 nM

Q: Which Ki does the source give for cyclo(GICSRSLPPICIPD) (disulfide 3-11 (inferred), Backbone-cyclised form of M2-4G) [M2-4G cyclic] here?
A: 350 nM

Q: Which Ki does the source give for B2 here?
A: 260 nM

Q: GMCSRSYPPVCIPD (disulfide 3-11 (inferred), Point mutant of M2-6E) [M2-6E-Y2M] was tested. Which Ki did it give?
A: 4000 nM

Q: For GWCSRSYPPVCIPD (disulfide 3-11 (inferred), Point mutant of M2-6E) [M2-6E-Y2W], which Ki is on record?
A: 1700 nM

Q: With GYCSRSIPPVCIPD (disulfide 3-11 (inferred), Point mutant of M2-6E) [M2-6E-Y7I] as the binder, how does the Ki read?
A: 160 nM

The binders below were run against T1, MASP-1 CCP1-CCP2-SP (human, UniProt P48740 298-699, limits assumed) in the same assay as above.
T1 construct: domain: CCP1-CCP2-SP; Recombinant fragment
T1 sequence (looked up): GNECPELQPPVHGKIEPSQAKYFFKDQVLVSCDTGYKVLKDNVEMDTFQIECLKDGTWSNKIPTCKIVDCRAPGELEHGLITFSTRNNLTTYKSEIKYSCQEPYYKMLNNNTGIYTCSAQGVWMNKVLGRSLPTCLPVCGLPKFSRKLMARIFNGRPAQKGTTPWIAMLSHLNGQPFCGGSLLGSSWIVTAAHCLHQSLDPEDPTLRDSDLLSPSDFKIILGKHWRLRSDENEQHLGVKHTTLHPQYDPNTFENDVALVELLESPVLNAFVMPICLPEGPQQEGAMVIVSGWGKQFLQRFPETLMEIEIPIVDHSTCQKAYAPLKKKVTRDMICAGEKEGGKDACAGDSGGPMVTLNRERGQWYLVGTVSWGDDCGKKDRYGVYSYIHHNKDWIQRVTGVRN

Q: For B1, which Ki is on record?
A: 140 nM

Q: For cyclo(GICSRSLPPICIPD) (disulfide 3-11 (inferred), Backbone-cyclised form of M2-4G) [M2-4G cyclic], which Ki is on record?
A: 275 nM

Q: For B2, which Ki is on record?
A: 65 nM

Q: With GMCSRSYPPVCIPD (disulfide 3-11 (inferred), Point mutant of M2-6E) [M2-6E-Y2M] as the binder, how does the Ki read?
A: 4000 nM

The binders below were run against T2, MASP-2 CCP1-CCP2-SP (human, UniProt O00187 298-686, limits assumed) in the same assay as above.
T2 construct: domain: CCP1-CCP2-SP; Recombinant fragment
T2 sequence (O00187 298-686 limits assumed): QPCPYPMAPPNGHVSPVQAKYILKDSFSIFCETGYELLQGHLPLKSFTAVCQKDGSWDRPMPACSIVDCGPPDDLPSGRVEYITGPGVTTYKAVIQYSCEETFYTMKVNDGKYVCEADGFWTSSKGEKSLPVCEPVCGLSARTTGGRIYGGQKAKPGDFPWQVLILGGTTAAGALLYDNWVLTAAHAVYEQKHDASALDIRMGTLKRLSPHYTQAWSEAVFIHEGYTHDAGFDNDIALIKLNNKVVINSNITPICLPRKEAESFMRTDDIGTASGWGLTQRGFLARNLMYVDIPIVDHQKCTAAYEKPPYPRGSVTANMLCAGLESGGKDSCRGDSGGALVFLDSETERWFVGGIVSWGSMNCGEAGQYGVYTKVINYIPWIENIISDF

Q: B1 was tested. Which Ki did it give?
A: 5000 nM

Q: Which Ki does the source give for cyclo(GICSRSLPPICIPD) (disulfide 3-11 (inferred), Backbone-cyclised form of M2-4G) [M2-4G cyclic] here?
A: 750 nM

Q: For B2, which Ki is on record?
A: 1030 nM

Q: How did the Ki turn out when GMCSRSYPPVCIPD (disulfide 3-11 (inferred), Point mutant of M2-6E) [M2-6E-Y2M] was run?
A: 1500 nM

Q: With GWCSRSYPPVCIPD (disulfide 3-11 (inferred), Point mutant of M2-6E) [M2-6E-Y2W] as the binder, how does the Ki read?
A: 580 nM

Q: GYCSRSIPPVCIPD (disulfide 3-11 (inferred), Point mutant of M2-6E) [M2-6E-Y7I] was tested. Which Ki did it give?
A: 7000 nM

Each binder was assayed against Thrombin (assay: enzyme inhibition, Z-Gly-Pro-Arg-pNa substrate, tight-binding fit).

Q: B2 was tested. Which Ki did it give?
A: 10000 nM

Each binder was assayed against T1, MASP-1 CCP1-CCP2-SP (assay: preliminary experiments, method not described).

Q: Does EVTCEPGTTFKDKCNTCRCGSDGKSAACTLKACPQ (other, UniProt O46162 57-91, looked up) [Schistocerca Gregaria Chymotrypsin Inhibitor (SGCI)] bind?
A: no binding

What follows are binders tested against T2, MASP-2 CCP1-CCP2-SP (assay: preliminary experiments, method not described).

Q: Does EVTCEPGTTFKDKCNTCRCGSDGKSAACTLKACPQ (other, UniProt O46162 57-91, looked up) [Schistocerca Gregaria Chymotrypsin Inhibitor (SGCI)] bind?
A: no binding
